Reference: US12410253B2, “Compositions comprising anti-NRP2 antibodies” (aTyr Pharma, Inc., priority 2019, dated 2025)
Entries after “also recorded” stand apart in the source; their conditions may differ.

T1: Human NRP2 (aa23-855) (Homo sapiens, UniProt O60462)
T1 construct: Human NRP2 (aa23-855)
T1 sequence (O60462 23-855 isoform O60462-3): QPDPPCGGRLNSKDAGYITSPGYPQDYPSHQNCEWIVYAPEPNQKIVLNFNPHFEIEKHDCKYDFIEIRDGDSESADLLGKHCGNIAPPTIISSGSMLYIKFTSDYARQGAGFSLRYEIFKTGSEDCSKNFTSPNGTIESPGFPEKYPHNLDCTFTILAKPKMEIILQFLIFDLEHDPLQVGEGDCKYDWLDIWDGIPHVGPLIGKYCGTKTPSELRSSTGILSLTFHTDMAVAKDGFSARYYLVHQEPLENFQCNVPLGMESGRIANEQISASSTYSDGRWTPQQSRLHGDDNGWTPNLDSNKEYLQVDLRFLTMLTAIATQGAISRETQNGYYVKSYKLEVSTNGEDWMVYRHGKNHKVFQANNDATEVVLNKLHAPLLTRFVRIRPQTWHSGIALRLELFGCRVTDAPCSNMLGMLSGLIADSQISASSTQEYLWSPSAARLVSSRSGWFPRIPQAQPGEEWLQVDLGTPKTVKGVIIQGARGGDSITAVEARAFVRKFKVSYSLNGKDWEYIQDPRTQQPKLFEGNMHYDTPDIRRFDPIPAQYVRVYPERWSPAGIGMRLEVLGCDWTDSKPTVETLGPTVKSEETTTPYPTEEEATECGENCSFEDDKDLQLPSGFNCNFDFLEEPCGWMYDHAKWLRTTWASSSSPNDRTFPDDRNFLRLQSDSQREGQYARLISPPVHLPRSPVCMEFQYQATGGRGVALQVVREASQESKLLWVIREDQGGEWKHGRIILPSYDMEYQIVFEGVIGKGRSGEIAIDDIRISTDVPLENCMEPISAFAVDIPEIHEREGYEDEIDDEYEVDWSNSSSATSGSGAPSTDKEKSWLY


Tests used:
A549 cells = test: A549 NSCLC xenograft in Nu/J mice, combination with 5-FU; type: in vivo; conditions: for tumor growth in combination with 5-FU: 12.5 mg/kg IP BIW plus 5-FU 2.5 mg/kg TIW from day 16, significant on day 51 vs control IgG/5-FU
Description: This study aimed to investigate the in vivo anticancer potential of aNRP2-10v10 in combination with fluorouracil (5-FU) in a human xenograft mouse model using A549 cells (NSCLC cancer model).
Treatment Regimen. Twenty (20) Nu/J mice (Jackson Laboratory, female, 6-8 wks old) were used in this study. […] The dosing regimen is shown in Table E7 below; In brief animals received injections of 12.5 mg/kg of aNRP2-10 or IgG control, which were administered to mice intraperitoneally twice a week according to the protocol below (Table E7). Both groups also received 2.5 mg/kg of 5-FU three times a week.
Human A549 cell line was purchased from ATCC.

MDA-MB-231 cells = test: 3D methylcellulose colony formation assay, MDA-MB-231; type: cell-based, human; conditions: antibody 100 nM in combination with Cisplatin (2 doses) or Bevacizumab (100 nM), compared to hIgG4
Source text: Other experimental details are essentially the same as described in the previous example.

BT549 = test: 3D soft agar colony formation assay, BT549; type: cell-based, human
Description: (§1) Anchorage-independent growth is the ability of transformed cells to grow independently of a solid surface, and is a hallmark of carcinogenesis. The soft agar colony formation assay is a well-established method for characterizing this capability in vitro (J Vis Exp. 2014; (92): 51998). Human triple negative breast cancer (TNBC) cell lines MDA-MB-231 (HTB-26™) and BT549 (HTB122™) were obtained from ATCC and employed in this assay.
(§2) MDA-MB-231 was cultured in 1×RPMI media containing 10% FBS and 1% P/S. BT549 was cultured in 1×RPMI media containing 10% FBS, 0.023 U/mL insulin and 1% P/S. Cells were recovered and expanded from frozen stocks for 2-3 passages. The NRP2-high population was sorted out on FACS equipment following cell surface staining by a fluorophore-conjugated anti-NRP2 antibody. […] The chemo drug Cisplatin or 5-FU was added at a final concentration of IC30 or 1/2 IC30, based on a preliminary test that determined their inhibition curves on MDA-MB-231 cells, in combination with the antibodies a-NRP2-10v10 or its isotype control hIgG4 at 100 nM. […] After 6 or 9 days of treatment, the soft agar matrix was dissolved and the formed cell colonies were quantified using CyQuant dye diluted in PBS (provided in the Cell Biolab kit), which produced a fluorescence signal proportional to viable cells.

Human NRP2 (aa23-855) = target: T1, Human NRP2 (aa23-855); test: SPR binding affinity of anti-NRP2 antibodies to human NRP2 antigen; conditions: KD = kd/ka, Langmuir (1:1) model
Description: Anti-NRP2 antibody binding and affinity measurements. […] SPR experiments were conducted on a Bio-Rad ProteOn XPR36 Protein Interaction Array instrument. Biotinylated anti-human antibody (ThermoFisher Cat #7103302100) was immobilized on ProteOn NLC sensor chips. Anti-NRP2 antibodies were subsequently flowed over and captured by the anti-human antibody. Human NRP2 antigen protein was flowed over the captured antibody at varying concentrations (150, 50, 16.67, 5.56, 1.85 nM). The sensor chip surface was regenerated between each analyte run to remove anti-NRP2 antibodies and NRP2 protein. Data was double referenced against a surface with no anti-NRP2 antibody captured (immobilized anti-human antibody only) and a buffer only blank. Affinity constants were derived by globally fitting sensograms to a Langmuir (1:1) interaction model in the ProteOn manager software. For each anti-NRP2 antibody, data from the multiple NRP2 concentrations was fit as a single data set with dissociation rate constant (kd), association rate constant (ka) and Rmax values as global parameters. The reported binding affinity is the equilibrium dissociation constant (KD) calculated from kd/ka. • Running buffer: 50 mM HEPES, 300 mM NaCl, 5 mM CaCl2), 0.005% Tween-20, pH 7.4 • Immobilized antibody: CaptureSelect Human Fab-kappa Kinetics Biotin Conjugate, ThermoFisher Cat #7103302100 • Antigen: Human NRP2 (aa23-855) with C-terminal Avi-, Myc- and His-tags • Regeneration buffer: 10 mM glycine pH 2.0

MDA-MB-231 = test: 3D soft agar colony formation assay, MDA-MB-231; type: cell-based, human
Description: as §1, §2

Molecule	tumor growth in combination with 5-FU (A549 cells)	tumor growth in combination with 5-FU (A549 cells; listed as aNRP2-10)	toxicity by clinical observations and body weights (A549 cells; combination with 5-FU)	colony formation by MDA-MB-231 cells, methylcellulose (MDA-MB-231 cells)	colony formation, soft agar, antibody treatment alone (BT549) (BT549; aNRP2-10v10 treatment alone)	colony formation by BT549 cells, soft agar (BT549; antibody 100 nM in combination with Cisplatin or 5-FU at certain doses, compared to hIgG4 control)	Kd (Human NRP2 (aa23-855)) [nM]	colony formation, soft agar, antibody treatment alone (MDA-MB-231) (MDA-MB-231; aNRP2-10v10 treatment alone)	colony formation by MDA-MB-231 cells, soft agar (MDA-MB-231; antibody 100 nM in combination with Cisplatin or 5-FU (IC30 or 1/2 IC30), compared to hIgG4 control, NRP2-high sorted cells)
aNRP2-10v10: humanized, affinity matured anti-NRP2 antibody, target domain b1, VEGF-C blocking; VH SEQ ID NO: 49, VL SEQ ID NO: 50 (antibody, V domains shown, Variable heavy chain region; Light chain variable region) VH: EVQLVQSGAEVKKPGATVKISCKVSGFNIKDYYVHWVQQAPGKGLEWMGRIDVEDDETKYAPKFQGRVTITADTSTDTAYMELSSLRSEDTAVYYCATPIYGAREAWFAYWGQGTLVTVSS VL: DIQMTQSPSSLSASVGDRVTITCTASSSVSSSYLHWYQQKPGKAPKLLIYRTSNLASGVPSRFSGSGSGTDFTLTISSLQPEDFATYYCHQYYRSPPTFGGGTKVEIK	enhances activity of the chemotherapeutic drug 5-FU	performed better than 5-FU with control IgG	No obvious increased toxicity	inhibitory effect; also recorded: significantly enhanced inhibition of colony formation	no obvious effect	significantly more pronounced	0.029	no obvious effect	significantly more pronounced; also recorded: significant inhibition of colony formation
aNRP2-11v7: humanized, affinity matured anti-NRP2 antibody, target domain b2; VH SEQ ID NO: 51, VL SEQ ID NO: 52 (antibody, V domains shown, Variable heavy chain region; Light chain variable region) VH: QVQLVQSGAEVKKPGASVKVSCKASGYTFTSFGISWVRQAPGQGLEWIGEIYPRSGNTYYNENFKGRATMTADKSTSTAYMELRSLRSDDTAVYYCARSSGYYGSTPFPYWGQGTLVTVSS VL: DIQMTQSPSSLSASVGDRVTITCRASQDISNYLNWYQQKPGKAVKLLIYYTSRLHSGVPSRFSGSGSGTDYTFTISSLQPEDIATYYCQQGNTLPWTFGGGTKVEIK							0.95		
